Results on two substances are retold here after US6770740B1, “Crosslinked DNA condesate compositions and gene delivery methods” (The Regents of the University of Michigan, priority 1999, dated 2004).

Bridges are numbered along the chain shown (N, C = ends). Where no end group is shown, it is not given here.

The subject of data set [1] is HepG2 cells. Description: Transient SEAP gene expression over 10 days. It counts as cell-based. The note with it: with chloroquine. The procedure: HepG2 cells (3×10^5) were plated on 6×35 mm wells and grown for 48 h to 40% confluence in MEM supplemented with 10% fetal calf serum (FCS). Crosslinked DNA condensates (10 μg of DNA in 200 μL) were transfected in triplicate by drop wise addition to cells in 2% FCS either with or without 80 μM chloroquine followed by 5 h incubation, after which the media was replaced with 2 mL of MEM containing 10% fetal calf serum and allowed to incubate for an additional 19 h. Wells were sampled for 10 days at 24 h intervals by removing and freezing (−20° C.) the media and replacing it with 2 mL of fresh 10% FCS MEM.
The amount of SEAP in each well was determined using a chemiluminescent kit. Media (50 μL) was combined with 50 μl of dilution buffer followed by incubation at 65° C. for 30 min to denature endogenous alkaline phosphatase. […] After 30 min, the luminescence was measured with a 10 s integration on a Berthold Lumat™ LB 9501 luminometer. Light units were converted to μg/ml of SEAP using a standard curve constructed by adding known quantities of SEAP to cell homogenate. Background alkaline phosphatase production was determined from a 10 day null control that was subtracted from each data set.

The nature of data set [2]: QELS particle size and zeta potential of cross-linking peptide DNA condensates, Example 5. It is filed as physicochemical. The procedure: The particle size of each peptide DNA condensate was determined by quasielastic light scattering (QELS) at a scatter angle of both 15° and 90° on a Brookhaven ZetaPlus™ particle sizer. Condensates were prepared at a DNA concentration of 50 μg/ml in 400 μl HBM at a stoichiometry of 0.4 nmol of peptide per μg of DNA corresponding to a charge ratio of approximately 2:1 for each. The mean diameter and population distribution were computed from the diffusion coefficient using a unimodal cummulant analysis supplied by the manufacturer.
The particle size and zeta peptide IV DNA condensates were determined by titrating 7.5 to 37.5 nmol of peptide with 75 μg of DNA in 1.5 ml of HBM to produce 50 μg/ml DNA condensates with charge ratio of 0.5-2.5. The zeta potential was averaged from 10 determines.

Data set [3] concerns HepG2 cells. In words: Luciferase reporter gene expression in HepG2 cells, Example 5. It is filed as cell-based. The procedure: HepG2 cells (1.5×10^5) were plated on 6×35 mm wells and grown to 40-70% confluency in MEM supplemented with 10% FBS, penicillin and streptomycin (10,000 U/ml), sodium pyruvate (100 mM), and L-glutamine (200 mM). Transfections were performed in MEM (2 ml per 35 mm well) with 2% FBS and 80 μM chloroquine. Peptide DNA condensates (10 μg of DNA in 0.2 ml HBM) were added dropwise to triplicate wells. After a 5 h incubation at 37° C., the media was replaced with MEM supplemented with 10% FBS. After 24 h, cells were washed twice with ice-cold phosphate buffered saline (calcium and magnesium free) and then treated with 0.5 ml of ice-cold lysis buffer (25 mM Tris chloride pH 7.8, 1 mM EDTA, 8 mM magnesium chloride, 1% Triton X-100, 1 mM DTT) for 10 min. The cell lysate was scraped, transferred to 1.5 ml microcentrifuge tubes, and centrifuged for 7 min at 13,000 g at 4° C. to pellet debris.
Lysis buffer (300 μl), sodium-ATP (4 μl of a 180 mM solution, pH 7, 4° C.) and cell lysate (100 μl, 4° C.) were combined in a test tube, briefly mixed and immediately placed in the luminometer. Luciferase relative light units (RLU) were recorded on a Lumat™ LB 9501 (Berthold systems, Germany) with 10 sec integration after automatic injection of 100 μl of 0.5 mM D-luciferin (prepared fresh in lysis buffer without DTT). The RLU were converted in fmol using a standard curve generated by adding a known amount of luciferase (0.01 to 100 fmols with specific activity of 2.5 nU/fmol) to 35 mm wells containing 40-70% confluent HepG2 cells. The cells were processed as described above resulting in a standard curve with an average slope of 7.8×10^6 RLU per fmol of enzyme. Protein concentrations were measured by Bradford assay using bovine serum albumin as a standard (Bradford, 1976). The amount of luciferase recovered in each sample was normalized to milligrams of protein and reported as the mean and standard deviation obtained from triplicate transfections.
LipofectAce™ (Gibco BRL, 1:2.5 w/w dimethyl diotadecylammonium bromide and dioleoyl phosphatidylethanolamine) was used to mediate gene transfection according to the manufacturer's instructions. The ratio of DNA to LepofectAce™ was optimized for HepG2 cells. An optimal DNA/LipofectAce™ ratio was achieved by dissolving 10 μg of DNA in 100 μl serum free media (SFM) followed by adding 60 μl of LipofectAce™ prepared in 140 μl of SFM. The LipfectAce™ DNA complex was then diluted with 1.7 ml of SFM and used to transfect HepG2 cells for 5 h followed by replacing the transfecting media with media supplemented with 10% FBS. The cells were incubated for a total of 24 h, harvested and analyzed for luciferase as described above.

A further data set concerns plasmid DNA. Description: Fluorescent dye (thiazole orange) displacement assay of peptide binding to DNA, Example 1. The note with it: corresponding to a charge ratio of 1.8:1. The protocol: Peptide DNA condensates were formed by adding 75 μg of DNA (pCMVL in 750 μl of 5 mM Hepes pH 7.4) to varying amounts of peptide (7.5 to 90 nmol in 750 μl of Hepes) while vortexing, followed by equilibration at RT for 1 h. Peptide binding to DNA was monitored by a fluorescent dye displacement assay (Wadhwa et al. 1997). A 1 μg aliquot of the peptide DNA condensate was diluted to 1 ml in Hepes containing 0.1 μM thiazole orange. The fluorescence of the intercalated dye was measured on an LS50B fluorimeter (Perkin Elmer, UK) in a microcuvette by exciting at 500 nm while monitoring emission at 530 nm.

Data set [4] in a line: QELS particle size and zeta potential of PEG-peptide DNA condensates and co-condensates, Example 1. It counts as physicochemical. The procedure:
The particle size of peptide DNA condensates were analyzed at a DNA concentration of 50 μg/ml in Hepes by quasielastic light scattering (QELS). The particle surface change was determined by zeta potential analysis using a Brookhaven ZetaPlus™ (Brookhaven Instruments).
DNA co-condensates were prepared by add-mixing AlkCWK18 and PEG-VS-CWK18 in ratios ranging from 0 to 100 mol %, and condensing DNA at a charge ratio of 2.3:1 as described above. To establish the mol ratio of peptides bound to DNA, condensates were dialyzed in a fixed volume (0.5 ml) dialyzer for 75 h against water using a 100,000 MWCO membrane. Peptide DNA condensates in the retentate (0.5 ml) were dissociated by adding 50 μl of 5 M sodium chloride in 0.1% TFA. AlkCWK18 and PEG-VS-CWK18 were quantified by injecting 1 nmol of peptide (100 μl) onto analytical RP-HPLC eluted with 0.1% TFA and a gradient of acetonitrile (5 to 65% over 30 min) while detecting tryptophan by fluorescence (λex 280 nm, λem 350 nm). The peak integration areas were used to quantify AlkCWK18 and PEG-VS-CWK18 with reference to standard curves developed for each peptide.

Data set [5] can be described thus: Solubility of peptide DNA condensates: particle size as a function of DNA concentration. It is filed as physicochemical. Conditions: at 2 mg/ml DNA.
For data set [6], the system named is HepG2 cells. Description: In vitro luciferase gene expression, Example 1. It counts as cell-based. The note with it: HepG2, 24 h post-transfection, 10 μg DNA, 80 μM chloroquine. The protocol: HepG2 cells were plated at 1.5×10^5 cells per 35 mm well and grown to 40-70% confluence in MEM supplemented with 10% fetal calf serum (FCS). Peptide DNA condensates (10 μg of DNA) were added dropwise to triplicate sets of cells in 2% FCS containing 80 μM chloroquine. After 5 h incubation at 37° C., the media was replaced with MEM supplemented with 10% FCS, and luciferase expression was determined at 24 h. Cells were washed twice with ice-cold phosphate buffered saline (calcium and magnesium free) and then treated with 0.5 ml of ice-cold lysis buffer (25 mM Tris hydrochloride pH 7.8, 1 mM EDTA, 8 mM magnesium chloride, 1% Triton X-100, 1 mM DTT) for 10 min. The cell lysate was scraped, transferred to 1.5 ml micro centrifuge tubes, and centrifuged for 7 min at 13,000 g at 4° C. to pellet debris.
Lysis buffer (300 μl), sodium-ATP (4 μl of a 180 mM solution, pH 7, 4° C.) and cell lysate (100 μl, 4° C.) were combined in a test tube, briefly mixed and immediately placed in the luminometer. Luciferase relative light units (RLU) were recorded on a Lumat™ LB 9501 (Berthold Systems, Germany) with 10 sec integration after automatic injection of 100 μl of 0.5 mM D-luciferin (prepared fresh in lysis buffer without DTT). […]

Data set [7] deals with HepG2 cells. In words: Cell binding of 125I-DNA condensates, Example 1. It counts as cell-based. The note with it: 5 h transfection, 10 μg 125I-DNA condensates. The protocol:
Iodinated plasmid DNA was prepared with specific activity of 300 nCi per μg of DNA as described previously (Teribesi et al., 1998). Prior to forming DNA condensates, the specific activity of the ^125I DNA was adjusted to 4.5 nCi per μg of DNA by combining with unlabeled plasmid. DNA condensates were prepared using AlkCWK18, PEG-SS-CWK18 or PEG-VS-CWK18 as described above. Peptide ^125I-DNA condensates (10 μg) were used to transfer HepG2 cells for 5 h according to the procedure described above. The radioactive media was removed, cells were washed with phosphate buffered saline, harvested with lysis buffer, and the cell-associated radioactivity was quantified by gamma counting.

As to “Lys18-Trp-Cys-S-S-Cys-Trp-Lys18 (KKKKKKKKKKKKKKKKKKWCCWKKKKKKKKKKKKKKKKKK; disulfide 20-21; also: disulfide-linked dimer of two CWK18 chains, no peptide bond between positions 20 and 21) [DiCWK18]”, the “more gene product relative to CWK18 DNA condensates” value in the data set on HepG2 cells [1] was “approximately 10%”. The “slope of the day 7-10 cumulative SEAP expression” value in the data set on HepG2 cells [1] (HMW polylysine panel (FIG. 29B)) stood at 32.7 ng/mL. For the same substance, the “Particle Size Mean Diameter, Oxidized, 15°” value in data set [2] (HBM after 2 h incubation, 50 μg/ml DNA, 0.4 nmol peptide per μg DNA, scattering angle 15°) is on record as 74 nm. In addition, the “Particle Size Mean Diameter, Oxidized, 90°” value in data set [2] (HBM after 2 h incubation, 50 μg/ml DNA, 0.4 nmol peptide per μg DNA, scattering angle 90°) was found to be 68 nm. Also, the “Particle Size Mean Diameter, Saline” value in data set [2] (HBM with added saline (0.15 M) after 15 min) amounted to 171 nm. The “Particle Size Mean Diameter, Reduced” value in data set [2] (following addition of TCEP (1 mM)) was 153 nm. Moreover, the “inferiority to polylysine1007 as a DNA carrier (gene expression)” value in the data set on HepG2 cells [3] was determined as 5 fold.
As for “PEG-SS-CWK18: reducible PEG-peptide from PEG-orthopyridyl-disulfide (5 kDa) and the sulfhydryl of CWK18 (CWKKKKKKKKKKKKKKKKKK; not fully specified (residue 1))”, the “peptide:DNA stoichiometry at the asymptote of the dye displacement titration curve (relative DNA binding affinity)” value in the data set on plasmid DNA is given as 0.3 nmol per μg of DNA. In addition, the “zeta potential of DNA condensates” value in data set [4] (charge ratio 1.8:1) is given as “+10 mV”. For the same substance, the “mean diameter of DNA condensates” value came out at 90 nm in data set [4] (charge ratio of 1.8:1 or higher, 50 μg/ml DNA in Hepes) and 88 nm in data set [5]. The “reduction of spontaneous gene transfer (luciferase expression) relative to AlkCWK18 DNA condensates” value in the data set with HepG2 cells [6] is reported as “five-fold”. For the same substance, the “cell associated 125I-DNA, percent of dose” value in the data set with HepG2 cells [7] is reported as 6.8%.
